Data from patent US20170130226, “APTAMERS AGAINST EGFR AND THERAPEUTIC USES THEREOF” (ALTERMUNE LIMITED, published 2017).

target: EGFR (UniProt P00533 P00533:25-645); test: SPR; PBS, 5 mM MgCl2, 20 C; conditions: tags: R&D Systems; amine-coupled to sensor chip; label: 5' biotin
Experimental: Aptamer binding to EGFR recombinant protein was assessed by surface plasmon resonance (SPR). SPR experiments were performed on a 404pi system (BiOptix, Boulder, Colo.), at a constant temperature of 20° C., 20 μL min⁻¹ flow rate, using running buffer (degassed PBS, 5 mM MgCl₂, 0.05% Tween) for all coupling and capture steps. 0.1 M N-hydroxysuccinimide (NHS) in MOPS, 0.4 M 1-ethyl-3-(3-dimethylaminopropyl) carbodiimide hydrochloride (EDC), 1 M ethanolamine hydrochloride (pH 8.5) and 10 mM sodium acetate pH 4.5, were from Sigma (St. Louis, Mo.). EGFR was obtained from R&D Systems (Minneapolis, Minn.). Three 96 well plates of oligonucleotides were synthesized by solid phase phosphoramidite chemistry by Boston Open Labs (Cambridge, Mass.) with a 5′ biotin.
The surface in all four channels of a CDM150 sensor chip (BiOptix) was activated by injecting 140 μL of a 1:1 mixture (v/v) of EDC and NHS. Then 350 μL of 285 nM EGFR in 10 mM sodium acetate pH 4.5 was injected in all 4 channels and covalently bound to a density of ˜8000 Response Units (RU) over 1050 sec. Finally, the surface was blocked by an injection of 200 μL 1 M ethanolamine hydrochloride.

Binding result, binds:
GGACGGAUUUAAUCGCCGUAGAAAAGCAUGUCAAAGCCGGAACCGUCC (ssRNA, 2'-F all C and U; 2'-OMe A7) [ALT102064.01]
GGACGGAUUUAAUCGCCGUAGAAAAGCAUGUCAAAGCCGGAACCGUCC (ssRNA, 2'-F all C and U; 2'-OMe G36) [ALT102093.01]
GGACGGAUUUAAUCGCCGUAGAAAAGCAUGUCAAAGCCGGAACCGUCC (ssRNA, 2'-F all C and U and A23) [ALT102119.01]
GGACGGAUUUAAUCGCCGUAGAAAAGCAUGUCAAAGCCGGAACCGUCC (ssRNA, 2'-F all C and U except 2'-OMe C48) [ALT102105.01]
GGACGGAUUUAAUCGCCGUAGAAAAGCAUGUCAAAGCCGGAACCGUCC (ssRNA, 2'-F all C and U except 2'-OMe C27) [ALT102084.01]
GGACGGAUUUAAUCGCCGUAGAAAAGCAUGUCAAAGCCGGAACCGUCC (ssRNA, 2'-F all C and U and A28) [ALT102123.01]
GGACGGAUUUAAUCGCCGUAGAAAAGCAUGUCAAAGCCGGAACCGUCC (ssRNA, 2'-F all C and U; 2'-OMe G5) [ALT102062.01]
GGACGGAUUUAAUCGCCGUAGAAAAGCAUGUCAAAGCCGGAACCGUCC (ssRNA, 2'-F all C and U and G2) [ALT102107.01]
GGACGGAUUUAAUCGCCGUAGAAAAGCAUGUCAAAGCCGGAACCGUCC (ssRNA, 2'-F all C and U; 2'-OMe A28) [ALT102085.01]
GGACGGAUUUAAUCGCCGUAGAAAAGCAUGUCAAAGCCGGAACCGUCC (ssRNA, 2'-F all C and U; 2'-OMe G26) [ALT102083.01]
GGACGGAUUUAAUCGCCGUAGAAAAGCAUGUCAAAGCCGGAACCGUCC (ssRNA, 2'-F all C and U; 2'-OMe G6) [ALT102063.01]
GGACGGAUUUAAUCGCCGUAGAAAAGCAUGUCAAAGCCGGAACCGUCC (ssRNA, 2'-F all C and U and A3) [ALT102108.01]
GGACGGAUUUAAUCGCCGUAGAAAAGCAUGUCAAAGCCGGAACCGUCC (ssRNA, 2'-F all C and U and G6) [ALT102110.01]
GGACGGAUUUAAUCGCCGUAGAAAAGCAUGUCAAAGCCGGAACCGUCC (ssRNA, 2'-F all C and U; 2'-OMe A41) [ALT102098.01]
GGACGGAUUUAAUCGCCGUAGAAAAGCAUGUCAAAGCCGGAACCGUCC (ssRNA, 2'-F all C and U and G21) [ALT102117.01]
GGACGGAUUUAAUCGCCGUAGAAAAGCAUGUCAAAGCCGGAACCGUCC (ssRNA, 2'-F all C and U; 2'-OMe G45) [ALT102102.01]
GGACGGAUUUAAUCGCCGUAGAAAAGCAUGUCAAAGCCGGAACCGUCC (ssRNA, 2'-F all C and U except 2'-OMe U19) [ALT102076.01]
GGACGGAUUUAAUCGCCGUAGAAAAGCAUGUCAAAGCCGGAACCGUCC (ssRNA, 2'-F all C and U and A11) [ALT102112.01]
GGACGGAUUUAAUCGCCGUAGAAAAGCAUGUCAAAGCCGGAACCGUCC (ssRNA, 2'-F all C and U except 2'-OMe U8) [ALT102065.01]
GGACGGAUUUAAUCGCCGUAGAAAAGCAUGUCAAAGCCGGAACCGUCC (ssRNA, 2'-F all C and U and A22) [ALT102118.01]
GGACGGAUUUAAUCGCCGUAGAAAAGCAUGUCAAAGCCGGAACCGUCC (ssRNA, 2'-F all C and U except 2'-OMe U9) [ALT102066.01]
GGACGGAUUUAAUCGCCGUAGAAAAGCAUGUCAAAGCCGGAACCGUCC (ssRNA, 2'-F all C and U except 2'-OMe C4) [ALT102061.01]
GGACGGAUUUAAUCGCCGUAGAAAAGCAUGUCAAAGCCGGAACCGUCC (ssRNA, 2'-F all C and U and A33) [ALT102125.01]
GGACGGAUUUAAUCGCCGUAGAAAAGCAUGUCAAAGCCGGAACCGUCC (ssRNA, 2'-F all C and U and G26) [ALT102122.01]
GGACGGAUUUAAUCGCCGUAGAAAAGCAUGUCAAAGCCGGAACCGUCC (ssRNA, 2'-F all C and U and A24) [ALT102120.01]
GGACGGAUUUAAUCGCCGUAGAAAAGCAUGUCAAAGCCGGAACCGUCC (ssRNA, 2'-F all C and U except 2'-OMe C16) [ALT102073.01]
GGACGGAUUUAAUCGCCGUAGAAAAGCAUGUCAAAGCCGGAACCGUCC (ssRNA, 2'-F all C and U except 2'-OMe C38) [ALT102095.01]
GGACGGAUUUAAUCGCCGUAGAAAAGCAUGUCAAAGCCGGAACCGUCC (ssRNA, 2'-F all C and U; 2'-OMe A23) [ALT102080.01]
GGACGGAUUUAAUCGCCGUAGAAAAGCAUGUCAAAGCCGGAACCGUCC (ssRNA, 2'-F all C and U and G15) [ALT102114.01]
GGACGGAUUUAAUCGCCGUAGAAAAGCAUGUCAAAGCCGGAACCGUCC (ssRNA, 2'-F all C and U; 2'-OMe A20) [ALT102077.01]
GGACGGAUUUAAUCGCCGUAGAAAAGCAUGUCAAAGCCGGAACCGUCC (ssRNA, 2'-F all C and U; 2'-OMe A33) [ALT102090.01]
GGACGGAUUUAAUCGCCGUAGAAAAGCAUGUCAAAGCCGGAACCGUCC (ssRNA, 2'-F all C and U and A20) [ALT102116.01]
GGACGGAUUUAAUCGCCGUAGAAAAGCAUGUCAAAGCCGGAACCGUCC (ssRNA, 2'-F all C and U; 2'-OMe G39) [ALT102096.01]
GGACGGAUUUAAUCGCCGUAGAAAAGCAUGUCAAAGCCGGAACCGUCC (ssRNA, 2'-F all C and U and G5) [ALT102109.01]
GGACGGAUUUAAUCGCCGUAGAAAAGCAUGUCAAAGCCGGAACCGUCC (ssRNA, 2'-F all C and U; 2'-OMe G15) [ALT102072.01]
GGACGGAUUUAAUCGCCGUAGAAAAGCAUGUCAAAGCCGGAACCGUCC (ssRNA, 2'-F all C and U and A25) [ALT102121.01]
GGACGGAUUUAAUCGCCGUAGAAAAGCAUGUCAAAGCCGGAACCGUCC (ssRNA, 2'-F all C and U except 2'-OMe U46) [ALT102103.01]
GGACGGAUUUAAUCGCCGUAGAAAAGCAUGUCAAAGCCGGAACCGUCC (ssRNA, 2'-F all C and U; 2'-OMe G30) [ALT102087.01]
GGACGGAUUUAAUCGCCGUAGAAAAGCAUGUCAAAGCCGGAACCGUCC (ssRNA, 2'-F all C and U except 2'-OMe C37) [ALT102094.01]
GGACGGAUUUAAUCGCCGUAGAAAAGCAUGUCAAAGCCGGAACCGUCC (ssRNA, 2'-F all C and U; 2'-OMe G18) [ALT102075.01]
GGACGGAUUUAAUCGCCGUAGAAAAGCAUGUCAAAGCCGGAACCGUCC (ssRNA, 2'-F all C and U; 2'-OMe G1) [ALT102058.01]
GGACGGAUUUAAUCGCCGUAGAAAAGCAUGUCAAAGCCGGAACCGUCC (ssRNA, 2'-F all C and U; 2'-OMe G40) [ALT102097.01]
GGACGGAUUUAAUCGCCGUAGAAAAGCAUGUCAAAGCCGGAACCGUCC (ssRNA, 2'-F all C and U; 2'-OMe A24) [ALT102081.01]
GGACGGAUUUAAUCGCCGUAGAAAAGCAUGUCAAAGCCGGAACCGUCC (ssRNA, 2'-F all C and U; 2'-OMe G21) [ALT102078.01]
GGACGGAUUUAAUCGCCGUAGAAAAGCAUGUCAAAGCCGGAACCGUCC (ssRNA, 2'-F all C and U and A7) [ALT102111.01]
GGACGGAUUUAAUCGCCGUAGAAAAGCAUGUCAAAGCCGGAACCGUCC (ssRNA, 2'-F all C and U; 2'-OMe G2) [ALT102059.01]
GGACGGAUUUAAUCGCCGUAGAAAAGCAUGUCAAAGCCGGAACCGUCC (ssRNA, 2'-F all C and U; 2'-OMe A3) [ALT102060.01]
GGACGGAUUUAAUCGCCGUAGAAAAGCAUGUCAAAGCCGGAACCGUCC (ssRNA, 2'-F all C and U except 2'-OMe C47) [ALT102104.01]
